Reference: patent US20100087363A1 (YEDA RESEARCH AND DEVELOPMENT, published 2010)

Biological target: T1, LDL (low density lipoprotein; Biomedical Technologies, Inc) (UniProt P04114 28-4563)
T1 construct: LDL is a lipoprotein particle (avg. mass 2.5x10^6 Da) of lipid and protein, not a pure protein
Test: size exclusion chromatography (Superose 6) of a pre-incubated LDL + sLDLR mix (7 micromolar each); ratio of bound and free sLDLR peaks by sLDLR ELISA, assuming 5-fold dilution
Procedure: Therefore, we employed another method for testing the binding of sLDLR to LDL. For this purpose, we incubated for 1 h at 37° C. a solution of LDL (Biomedical technologies, Inc, Ma, USA) and r-hsLDLR of Example 5 at a final concentration of 7 micromolar each in PBS plus 10 micromolar Calcium Chloride (PBS+). An aliquot of 0.1 ml was subjected to size exclusion chromatography on a Superose 6 HR 10/30 column (GE Healthcare Life Sciences Cat. No 17-5172-01). The column was eluted with PBS+ at a flow rate of 0.4 ml/min and fractions of 0.5 ml were collected. The concentration of r-hsLDLR was determined by a specific ELISA as follows:
Mab #28 anti-human sLDLR (5 microgram/ml in PBS; corresponding to Mab from hybridoma clone 28 deposited at the CNCM under No. 1-2391-U.S. Pat. No. 6,849,720) was used for coating of 96-well ELISA plates at 0.1 ml/well overnight at room temperature. The plates were then washed ×3 with PBS containing 0.05% Tween-20 and then blocked by 0.3 ml blocking buffer (1% bovine serum albumin, 5% sucrose, 0.05% sodium azide in PBS). The plates were then washed 3× with PBS. […] The plated were then washed 3× with reagent diluent, a substrate solution (0.1 ml TMB/E, Chemicon) is added to each well and the plates were either read within 5 min at 630 nm or stopped with H₂SO₄ (2 N 0.05 ml) and read at 450 nm.

- Kd: ~10 nM
B1: recombinant human soluble LDL receptor, amino acid residues 25-352 of the LDLR precursor, expressed in CHO cells (receptor)
chain: not shown
modifications: N-glycosylated at Asn 272 of the LDLR precursor
notes: range 25-352; Produced in DHFR-deficient CHO cells (InterPharm Laboratories); also called sLDLR; r-hsLDLR
